Source: IntAct's records for PubMed 23685356

B1: Homeobox-containing protein 1 (Homo sapiens), Q6NT76 (parent)
chain: MLSSFPVVLLETMSHYTDEPRFTIEQIDLLQRLRRTGMTKHEILHALETLDRLDQEHSDKFGRRSSYGGSSYGNSTNNVPASSSTATASTQTQHSGMSPSPSNSYDTSPQPCTTNQNGRENNERLSTSNGKMSPTRYHANSMGQRSYSFEASEEDLDVDDKVEELMRRDSSVIKEEIKAFLANRRISQAVVAQVTGISQSRISHWLLQQGSDLSEQKKRAFYRWYQLEKTNPGATLSMRPAPIPIEDPEWRQTPPPVSATSGTFRLRRGSRFTWRKECLAVMESYFNENQYPDEAKREEIANACNAVIQKPGKKLSDLERVTSLKVYNWFANRRKEIKRRANIEAAILESHGIDVQSPGGHSNSDDVDGNDYSEQDDSTSHSDHQDPISLAVEMAAVNHTILALARQGANEIKTEALDDD
partner: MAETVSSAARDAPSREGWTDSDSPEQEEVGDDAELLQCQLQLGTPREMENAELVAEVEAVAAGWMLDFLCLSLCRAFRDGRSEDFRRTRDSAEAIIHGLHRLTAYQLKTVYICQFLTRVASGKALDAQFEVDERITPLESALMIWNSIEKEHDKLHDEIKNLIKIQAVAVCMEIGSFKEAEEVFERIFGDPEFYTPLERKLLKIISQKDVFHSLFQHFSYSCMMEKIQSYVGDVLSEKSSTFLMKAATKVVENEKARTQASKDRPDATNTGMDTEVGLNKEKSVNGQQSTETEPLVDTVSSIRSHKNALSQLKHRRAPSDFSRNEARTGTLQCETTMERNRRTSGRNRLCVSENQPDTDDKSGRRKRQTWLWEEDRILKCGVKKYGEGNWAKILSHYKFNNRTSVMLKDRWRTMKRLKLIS

Variants of: B1
Details: with terf1_mouse Terf1, P70371

| effect of a mutation on the interaction | Variant |
| --- | --- |
| disrupting interaction | MLSSFPVVLLETMSHYTDEPRFTIEQIDLLQRLRRTGMTKHEILHALETLDRLDQEHSDKFGRRSSYGGSSYGNSTNNVPASSSTATASTQTQHSGMSPSPSNSYDTSPQPCTTNQNGRENNERLSTSNGKMSPTRYHANSMGQRSYSFEASEEDLDVDDKVEELMRRDSSVIKEEIKAFLANRRISQAVVAQVTGISQSRISHWLLQQGSDLSEQKKRAFYRWYQLEKTNPGATLSMRPAPIPIEDPEWRQTPPPVSATSGTFRLRRGSRFTWRKECLAVMESYFNENQYPDEAKREEIANACNAVIQKPGKKLSDLERVTSLKVYNWFANRRKEIKARANIEAAILESHGIDVQSPGGHSNSDDVDGNDYSEQDDSTSHSDHQDPISLAVEMAAVNHTILALARQGANEIKTEALDDD [R339A] |
